Measured values from publication PMC3741918 (FEBS Open Bio, 2013).

T1: human frataxin variant hFXN56–210 (human, UniProt Q16595 56-210)
T1 sequence (looked up): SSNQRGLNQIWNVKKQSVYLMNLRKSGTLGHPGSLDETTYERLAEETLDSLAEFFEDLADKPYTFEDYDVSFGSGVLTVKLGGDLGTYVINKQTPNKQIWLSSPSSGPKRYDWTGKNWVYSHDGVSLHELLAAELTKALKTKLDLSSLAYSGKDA


Columns and labels:
[1] = molecular target: human frataxin variant hFXN56–210 (human) (UniProt Q16595); assay: SEC
[2] = molecular target: T1, human frataxin variant hFXN56–210; assay: aggregation assay

Molecule	percent of the protein in the oligomeric state [1]	binding result [2]
human frataxin variant hFXN56–210 (from UniProt Q16595 56-210) (domain or fragment)	60%	
SSNQRGLNQIWNVKKQSVYLMNLRKS [peptide hFXN56–81]		binds
